The assay has as its target T1, SNF1 fused to the GAL4 DNA-binding domain (pAS2) (UniProt P04386 1-147; P06782 1-633, limits assumed).
T1 construct: Unrelated control protein in the yeast two-hybrid system
Kind of assay: yeast two-hybrid, β-galactosidase. Here is the method:
Cloning of STRAP. Northern blot and Southern blot analysis—Y190 containing pAS2-R4C was transformed with a pACT-mouse embryonic cDNA library, and transformants were subjected to selection for histidine prototrophy on SC-his, -trp, -leu plates containing 25 mM 3-aminotriazole (as described in Harper at al., *Cell* 75: 805–816 (1993) and Durfee et al., *Genes Dev.* 7:555–569 (1993)) and rare surviving colonies were then screened for β-galactosidase activity using a colony filter lift assay. Resulting clones, after second screening, were mated with Y187 containing the unrelated proteins p53, lamin, SNF1 and CDK2 fused to the GAL4 DNA-binding domain and tested for β-galactosidase activity. Positive clones were recovered from yeast and retransformed into Y190 with one of several unrelated molecules including lamin, SNF1, p53 or CDK2 in pAS2, for further testing of the specific interaction.
A color photograph was prepared showing STRAP or FKBP12.6 in pACT transformed into yeast strain Y190 containing R4C or one of several unrelated proteins including lamin. SNF1, p53 or CDK2 in pAS2. Transformants were tested for β-galactosidase activity by colony filter lift assay. A blue color indicated a positive interaction.

B1: STRAP (Serine-Threonine Kinase Receptors Associated Protein) in pACT (other)
chain: MAMRQTPLTCSGHTRPVVDLAFSGITPYGYFLISACKDGKPMLRQGDTGDWIGTFLGHKGAVWGATLNKDATKAATAAADFTAKVWDAVSGDELMTLAHKHIVKTVDFTQDSNYLLTGGQDKLLRIYDLNKPEAEPKEISGHTSGIKKALWCSDDKQILSADDKTVRLWDHATMTEVKSLNFNMSVSSMEYIPEGEILVITYGRSIAFHSAVSLEPIKSFEAPATINSASLHPEKEFLVAGGEDFKLYKYDYNSGEELESYKGHFGPIHCVRFSPDGELYASGSEDGTLRLWQTVVGKTYGLWKCVLPEEDSGELAKPKIGFPETAEEELAEEIASENSDSIYSSTPEVKA
notes: Yeast two-hybrid prey from a pACT mouse embryonic cDNA library (1.6 kb cDNA); also called STRAP clone; not shown: fusion partner encoded by the pACT library vector
B1: the binding result is recorded as “no binding”.

The values are drawn from patent US6770458 (VANDERBILT UNIVERSITY, dated 2004).
